“Also recorded” adds a separate entry of the source.

A short description of the data set: Iron, blood and bone parameters of wild type mice treated systemically with Tfr2-ECD. It counts as in vivo. As to the method:
For systemic Tfr2-ECD treatment, WT mice were treated every other day with Tfr2-ECD intraperitoneally for two weeks. Mice received 250 μg Tfr2-ECD (10 mg/kg BW) per injection for the first 10 days after BMP-2/matrigel injection into the muscle and 125 μg per injection (5 mg/kg BW) for the remaining time. This experiment was performed once with 8-10 mice per group. Drop-weight HO: This experiment was performed according to Liu et al. with minor modifications^65. Female 10-12-week-old WT mice were anesthetized and placed on a ridge of a plastic container over which the right leg was bent so the femur was lying horizontally. Mice received an injection of 1 μg BMP-2 mixed in 50 μl matrigel. Afterwards, a stainless-steel ball of 16 g (16 mm diameter) was dropped from a distance of 80 cm height onto the quadriceps muscle. Mice either received a single dose of 1 μg Tfr2-ECD, which was co-injected with the BMP-2/matrigel mixture, or palovarotene (Hycultec), which was administered daily by oral gavage. Palovarotene was dissolved in DMSO and diluted 1:4 with corn oil. Mice received palovarotene at a dose of 100 μg/mouse for the first five days and 50 μg/mouse for the remainder of the experiment (days 621). One group of mice received ibuprofen via the drinking water at a dose of […] which was changed every other day^66. Mice received methamizole (200 mg/kg) to reduce pain for the entire duration of the experiment. This experiment was performed twice with 6 mice per group.
Bone microarchitecture was analyzed using the vivaCT40 (Scanco Medical, Switzerland). The femur and the fourth lumbar vertebra were imaged at a resolution of 10.5 μm with X-ray energy of 70 kVp, […], and an integration time of 200 ms. The trabecular bone in the femur was assessed in the metaphysis 20 slices below the growth plate using 150 slices. In the vertebral bone, 150 slices were measured between both growth plates. The cortical bone was determined in the femoral midshaft (150 slices). Pre-defined scripts from Scanco were used for the evaluation.
The iron concentration in the liver was determined using 20 mg of dried liver tissue as previously published^8. The iron concentration in the bone was determined using atomic absorption spectroscopy (PerkinElmer Analyst 800) of dried bone tissue (bone marrow-flushed femur and tibia) as previously published^69.
The bone turnover markers C-terminal telopeptide (CTX) and pro-collagen type I N-terminal peptide (P1NP) were measured in the serum using ELISAs (IDS, Germany). Serum dickkopf-1 and BMP-2 were measured using ELISAs from R&D Systems (Germany). Mouse sclerostin was measured with an ELISA from Alpco (USA). Serum ferritin and iron were measured using routine methods for clinical analyses on a Roche Modular PPE analyzer. The transferrin saturation was determined using a total iron binding capacity kit from Randox.

Setting [1] is: wild type mice, systemic Tfr2-ECD, n = 8, means ± SD.

B1: Tfr2-ECD: Recombinant full-length extracellular domain (aa 103-798) of murine Tfr2, His-tagged, expressed in Sf9 insect cells (protein, listed as Mus musculus)
chain: RGSCQACGDSVLVVDEDVNPEDSGRTTLYWSDLQAMFLRFLGEGRMEDTIRLTSLRERVAGSARMATLVQDILDKLSRQKLDHVWTDTHYVGLQFPDPAHANTLHWVDADGSVQEQLPLEDPEVYCPYSATGNATGKLVYAHYGRSEDLQDLKAKGVELAGSLLLVRVGITSFAQKVAVAQDFGAQGVLIYPDPSDFSQDPHKPGLSSHQAVYGHVHLGTGDPYTPGFPSFNQTQFPPVESSGLPSIPAQPISADIADQLLRKLTGPVAPQEWKGHLSGSPYRLGPGPDLRLVVNNHRVSTPISNIFACIEGFAEPDHYVVIGAQRDAWGPGAAKSAVGTAILLELVRTFSSMVSNGFRPRRSLLFISWDGGDFGSVGATEWLEGYLSVLHLKAVVYVSLDNSVLGDGKFHAKTSPLLVSLIENILKQVDSPNHSGQTLYEQVALTHPSWDAEVIQPLPMDSSAYSFTAFAGVPAVEFSFMEDDRVYPFLHTKEDTYENLHKMLRGRLPAVVQAVAQLAGQLLIRLSHDHLLPLDFGRYGDVVLRHIGNLNEFSGDLKERGLTLQWVYSARGDYIRAAEKLRKEIYSSERNDERLMRMYNVRIMRVEFYFLSQYVSPADSPFRHIFLGQGDHTLGALVDHLRMLRADGSGAASSRLTAGLGFQESRFRRQLALLTWTLQGAANALSGDVWNIDNNF
modifications: His tag
notes: Recombinant full-length extracellular domain (aa 103-798) of murine Tfr2, His-tagged, expressed in Sf9 insect cells
As for B1, the “Adverse effects on blood counts, iron parameters, bone homeostasis or gross morphology of internal organs” value (systemic Tfr2-ECD treatment, 2 week treatment period) is “No adverse effects; also recorded: did not show adverse effects”. Also, under setting [1], the “Differential counts, Lymphocytes” value was 90.1 ± 4.35%; the “Differential counts, Monocytes” value came out at 2.17 ± 2.55%; the “Differential counts, Neutrophils” value was found to be 7.33 ± 2.82%; the HCT was 0.51 ± 0.02. Under setting [1], the Heart iron is listed as 207.8 ± 54.1 μg/g dry tissue, the Hemoglobin was 9.77 ± 0.41 mmol/L, the Kidney iron was found to be 112.6 ± 15.0 μg/g dry tissue and the Liver iron is on record as 578.3 ± 273^ μg/g dry tissue. In addition, under setting [1], the Plasma iron worked out at 30.1 ± 3.3 µmol/L, the Platelets is given as 385 ± 69.5 10^9/L, the RBC was 10.1 ± 0.40 10^12/L and the Reticulocytes is 197 ± 24.2 10^9/L. In addition, under setting [1], the Spleen iron is listed as 620.2 ± 113^ μg/g dry tissue, the WBC is 11.0 ± 3.09 10^9/L, the “μCT BV/TV Femur” value came to 10.7 ± 3.09% and the “μCT BV/TV Vertebrae” value stood at 24.1 ± 3.36%.

Values taken from patent publication US20240199755A1, “ANTAGONISTS AND AGONISTS OF THE TRANSFERRIN RECEPTOR-2 FOR USE IN THE TREATMENT OF DISEASES OF THE BONE” (Kymab Limited, priority 2018, published 2024).
